According to US20150197579A1 (MorphoSys, published 2015):

B1: AdaTNF#1 (Fab, V domains shown)
VH: QVQLVQSGAEVKKPGSSVKVSCKASGGTFSTYAISWVRQAPGQGLEWMGGIIPIFGTANYAQKFQGRVTITADESTSTAYMELSSLRSEDTAVYYCARDYFSSIGWVVYYGPMDYWGQGTLVTVSS
VL: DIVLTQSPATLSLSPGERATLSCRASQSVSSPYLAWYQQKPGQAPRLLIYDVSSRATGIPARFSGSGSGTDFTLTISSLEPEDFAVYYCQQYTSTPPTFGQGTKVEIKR
notes: HuCAL Fab in Fab-FH format, detected by an anti-His antibody; also called anti-Adalimumab/TNF-α antibody in Fab-FH format
B2: AdaTNF#5 (Fab, V domains shown)
VH: QVQLVQSGAEVKKPGSSVKVSCKASGGTFSTNAISWVRQAPGQGLEWMGGINPHLGHADYAQKFQGRVTITADESTSTAYMELSSLRSEDTAVYYCARGWYYIGSNPSMYPNYFDPWGQGTLVTVSS
VL: DIQMTQSPSSLSASVGDRVTITCRASQTISSYLNWYQQKPGKAPKLLIYTASNLQSGVPSRFSGSGSGTDFTLTISSLQPEDFATYYCQQVLHLPHTFGQGTKVEIKR
notes: HuCAL Fab in Fab-FH format, detected by an anti-His antibody; also called AdaTNb/F#5; anti-Adalimumab/TNF-α antibody in Fab-FH format
B3: AdaTNF#5-hIgG1 (antibody, V domains shown)
VH: B2 VH
VL: B2 VL
modifications: antibody conjugated to HRP, site not stated
notes: AdaTNF#5 converted into full length (bivalent) human IgG1, expressed in a human cell line, conjugated to HRP; also called anti-Adalimumab/TNF-α hIgG1 antibody AdaTNF#5 (conjugated to HRP); HRP-conjugated AdaTNF#5-hIgG1

Key:
Ustekinumab [1] = biological target: T1, Ustekinumab; experiment: ELISA: antigen coated at 5 µg/mL, Fab-FH at 2 µg/mL, HRP-labeled anti-His antibody, QuantaBlu
T1 construct: not shown: the constant regions
Procedure: (§1) 5 μg/mL of each of the antigens were coated on a microtiter plate over night. […] Detection was performed using an HRP-labeled anti-His antibody and QuantaBlu fluorogenic peroxidase substrate.
(§2) Therefore 5 μg/mL of each of the antigens were coated on a microtiter plate over night. […] Detection was performed using an HRP-labeled anti-His antibody and QuantaBlu fluorogenic peroxidase substrate.

Rituximab [2] = biological target: T2, Rituximab; experiment: as above
T2 construct: Control antigen in the screening ELISA; also called Rituximab (IgG1kappa); not shown: the constant regions
Procedure: as §1, §2

Adalimumab [3] = biological target: T3, Adalimumab; experiment: as above
T3 construct: not shown: the constant regions
Procedure: as §1, §2

BSA = BSA (bovine, UniProt P02769); experiment: as above
Procedure: as §1, §2

Bevacizumab = biological target: T4, Bevacizumab; experiment: as above
T4 construct: not shown: the constant regions
Procedure: as §1, §2

Adalimumab/TNF-α complex = Adalimumab/TNF-α complex (human, UniProt P01375 77-233); experiment: real time, label free interaction analysis, Attana A200, immobilized Adalimumab-TNF-α complex, monovalent
Ustekinumab [4] = biological target: T1, Ustekinumab; experiment: ELISA: antigen coated at 5 µg/mL, HRP-conjugated AdaTNF#5-hIgG1 at 2 µg/mL in HiSpec buffer, QuantaBlu
Procedure: (§3) Antigens were coated at 5 μg/mL on a microtiter plate over night. […] Detection was performed using the QuantaBlu® fluorogenic peroxidase substrate. […] (FIG. 3)

Rituximab [5] = biological target: T2, Rituximab; experiment: as above
Procedure: as §3

Adalimumab [6] = biological target: T3, Adalimumab; experiment: as above
Procedure: as §3

T2 sequence (VH, as listed by the source, chain 1 of 2): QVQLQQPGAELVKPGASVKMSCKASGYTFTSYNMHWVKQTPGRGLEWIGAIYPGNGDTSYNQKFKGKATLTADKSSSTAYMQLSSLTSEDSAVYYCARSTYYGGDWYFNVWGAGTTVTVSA
T2 sequence (VL, as listed by the source, chain 2 of 2): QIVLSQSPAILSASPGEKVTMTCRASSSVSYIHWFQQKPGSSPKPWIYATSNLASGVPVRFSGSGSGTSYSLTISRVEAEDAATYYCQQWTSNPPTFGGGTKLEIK
T1 sequence (VH, as listed by the source): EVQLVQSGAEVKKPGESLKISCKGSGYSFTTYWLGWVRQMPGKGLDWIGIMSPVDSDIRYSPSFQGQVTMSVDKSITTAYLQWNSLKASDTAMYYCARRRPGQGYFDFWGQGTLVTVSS
T4 sequence (VH, as listed by the source): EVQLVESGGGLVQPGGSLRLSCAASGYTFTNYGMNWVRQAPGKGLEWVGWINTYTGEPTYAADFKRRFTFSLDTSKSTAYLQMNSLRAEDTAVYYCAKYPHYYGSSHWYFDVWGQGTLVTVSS
Sequence of BSA (P02769 25-607 limits assumed): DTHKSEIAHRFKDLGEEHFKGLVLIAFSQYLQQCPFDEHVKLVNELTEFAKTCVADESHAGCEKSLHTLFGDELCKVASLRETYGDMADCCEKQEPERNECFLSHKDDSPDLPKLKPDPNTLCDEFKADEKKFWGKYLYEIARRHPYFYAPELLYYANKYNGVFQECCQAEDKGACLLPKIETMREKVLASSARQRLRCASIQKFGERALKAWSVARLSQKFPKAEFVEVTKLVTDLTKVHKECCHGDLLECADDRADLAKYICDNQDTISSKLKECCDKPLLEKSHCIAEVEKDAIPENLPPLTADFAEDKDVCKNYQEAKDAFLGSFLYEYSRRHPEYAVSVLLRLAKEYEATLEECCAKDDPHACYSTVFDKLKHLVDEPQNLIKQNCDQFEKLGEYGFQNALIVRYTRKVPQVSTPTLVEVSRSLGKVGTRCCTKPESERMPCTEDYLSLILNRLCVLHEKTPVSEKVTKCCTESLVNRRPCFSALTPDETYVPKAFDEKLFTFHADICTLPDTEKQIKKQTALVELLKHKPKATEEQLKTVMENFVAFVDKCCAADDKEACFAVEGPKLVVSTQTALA
Sequence of Adalimumab/TNF-α complex (P01375 77-233, one chain of several): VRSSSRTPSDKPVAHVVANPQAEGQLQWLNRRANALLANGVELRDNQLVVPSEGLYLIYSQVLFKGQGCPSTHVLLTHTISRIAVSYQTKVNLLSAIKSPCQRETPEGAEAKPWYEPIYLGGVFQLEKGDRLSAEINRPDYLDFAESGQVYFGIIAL

| Binder | binding result (Ustekinumab [1]) | binding result (Rituximab [2]) | binding result (Adalimumab [3]) | binding result (BSA) | binding result (Bevacizumab) | Kd (Adalimumab/TNF-α complex) [nM] | binding result (Ustekinumab [4]) | binding result (Rituximab [5]) | binding result (Adalimumab [6]) |
| --- | --- | --- | --- | --- | --- | --- | --- | --- | --- |
| B1 | no binding (tested: 2 µg/mL) | no binding (tested: 2 µg/mL) | no binding (tested: 2 µg/mL) | no binding (tested: 2 µg/mL) | no binding (tested: 2 µg/mL) | – | – | – | – |
| B2 | no binding (tested: 2 µg/mL) | no binding (tested: 2 µg/mL) | no binding (tested: 2 µg/mL) | no binding (tested: 2 µg/mL) | no binding (tested: 2 µg/mL) | 67 | – | – | – |
| B3 | – | – | – | – | – | – | no binding (tested: 2 µg/mL) | no binding (tested: 2 µg/mL) | no binding (tested: 2 µg/mL) |
